Source: patent US20140371150A1 (UNIVERSITE DE NANTES, published 2014)
Blank lines part the entries; values can stand above or below the binder they belong to.

How the values were obtained:
[1] = molecular target: T1, RANK-Fc carrier-free (R&D Systems) (human, UniProt Q9Y6Q6 30-212); test: SPR (BIAcore 3000), RANK-Fc immobilized, single cycle kinetics, 1:1 Langmuir model
T1 construct: Bought from R&D Systems; Immobilized on the sensor chip for SPR and used in solution for NMR; also called hRANK; RANK-Fc CF; not shown: Fc part of the bought fusion protein
T1 sequence (looked up): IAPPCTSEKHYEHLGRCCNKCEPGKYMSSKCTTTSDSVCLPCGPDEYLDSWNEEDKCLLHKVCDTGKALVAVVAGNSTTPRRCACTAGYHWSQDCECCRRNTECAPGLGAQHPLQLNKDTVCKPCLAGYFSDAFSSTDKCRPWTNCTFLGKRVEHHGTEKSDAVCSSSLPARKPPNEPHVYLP
Procedure: Biosensor experiments were carried out on a BIAcore 3000 instrument (BIAcore) as published previously (Baud'Huin et al. 2009). Recombinant purified RANKL (2 μg/mL in 5 mM maleate, pH 5.75) or RANK-Fc carrier-free (5 μg/mL in sodium acetate buffer, pH 5.0) were covalently immobilized to the dextran matrix of a CMS sensor chip (BIAcore) at a flow rate of 5 μL/min. Immobilization levels ranging from 400 to 3000 Response Units (RU) for RANKL or 5000 RU for RANK were obtained. Binding assays were performed at 25° C. in 10 mM Hepes buffer, pH 7.4. The association phase was 180 seconds followed by a dissociation phase in the same buffer. Polypeptides binding studies to RANK or RANKL were determined using single cycle kinetics, starting with 100 μM of the polypeptide of interest followed by 2-fold serial dilutions (ranging from 100 to 0.78 μM). The sensorgrams were fitted to calculate the equilibrium-dissociation constants using the Langmuir 1:1 model with BiaEval 4.1 software (BIAcore). RANK-Fc CF, RANKL and OPG carrier-free were obtained from R&D Systems (Minneapolis, Minn., USA).
Binding of the polypeptides to RANK was studied using surface plasmon resonance (FIG. 1C). Several polypeptides bound to immobilized RANK in a dose-dependent manner, presented here is Pep1 (SEQ ID NO: 33).

[2] = molecular target: T2, mouse RANK on cells (murine CD11b+ monocytes; RAW264.7 cells) (mouse, UniProt O35305 31-625); test: cell-based or functional assay
T2 sequence (looked up): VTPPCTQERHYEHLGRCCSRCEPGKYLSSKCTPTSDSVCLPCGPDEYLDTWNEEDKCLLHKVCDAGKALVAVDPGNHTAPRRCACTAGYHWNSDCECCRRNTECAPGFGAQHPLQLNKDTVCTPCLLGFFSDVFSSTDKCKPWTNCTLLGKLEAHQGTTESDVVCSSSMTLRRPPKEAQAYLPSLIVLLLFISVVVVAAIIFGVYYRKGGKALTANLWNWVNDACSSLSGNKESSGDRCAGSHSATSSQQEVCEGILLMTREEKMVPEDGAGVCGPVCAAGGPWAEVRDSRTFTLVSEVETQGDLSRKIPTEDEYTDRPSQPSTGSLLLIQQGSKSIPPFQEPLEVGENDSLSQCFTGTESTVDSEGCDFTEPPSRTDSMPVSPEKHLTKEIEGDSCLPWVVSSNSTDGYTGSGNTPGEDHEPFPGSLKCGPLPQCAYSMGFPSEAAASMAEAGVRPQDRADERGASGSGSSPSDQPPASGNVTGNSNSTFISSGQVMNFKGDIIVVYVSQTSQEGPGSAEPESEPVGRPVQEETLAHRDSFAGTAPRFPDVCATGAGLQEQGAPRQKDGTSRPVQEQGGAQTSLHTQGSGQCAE

[3] = molecular target: T3, human RANK on cells (human CD14+ monocytes; HEK-RANK cells) (human, UniProt Q9Y6Q6 30-616); test: cell-based or functional assay
T3 sequence (looked up): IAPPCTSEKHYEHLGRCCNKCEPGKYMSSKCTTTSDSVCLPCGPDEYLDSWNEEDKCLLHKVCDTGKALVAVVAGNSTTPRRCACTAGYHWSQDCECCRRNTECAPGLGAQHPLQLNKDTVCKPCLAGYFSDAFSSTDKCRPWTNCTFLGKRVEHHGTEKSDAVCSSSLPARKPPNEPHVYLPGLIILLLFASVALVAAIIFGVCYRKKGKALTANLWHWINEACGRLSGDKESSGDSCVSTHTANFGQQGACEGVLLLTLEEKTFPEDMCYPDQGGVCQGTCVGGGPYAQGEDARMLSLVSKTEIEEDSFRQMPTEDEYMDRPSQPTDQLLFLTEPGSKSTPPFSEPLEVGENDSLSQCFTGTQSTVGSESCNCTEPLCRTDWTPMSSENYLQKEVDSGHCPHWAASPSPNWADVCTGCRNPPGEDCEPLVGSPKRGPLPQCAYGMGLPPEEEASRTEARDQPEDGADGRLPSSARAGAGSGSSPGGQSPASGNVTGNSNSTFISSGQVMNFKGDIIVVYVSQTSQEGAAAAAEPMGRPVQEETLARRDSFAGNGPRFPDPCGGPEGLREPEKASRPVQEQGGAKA

- Kd [1]: 10.5 µM
- koff [1]: 0.0052 s⁻¹
- kon [1]: 495 M⁻¹ s⁻¹
- IC50 of RANKL-induced osteoclast formation (TRAP-positive multinucleated cells), murine CD11b+ cells [2]: 30 µM
- IC50 of RANKL-induced osteoclast formation (TRAP-positive multinucleated cells), human CD14+ cells [3]: 40 µM
B1: Pep8 (peptide)
peptide: NVLKLCSGE
notes: Pegylated forms (N-(PEG)5, N-(PEG)8) were tested only in gene expression assays and in vivo; also called polypeptide Pep8

- Kd [1]: 20.6 µM
- koff [1]: 0.000278 s⁻¹
B2: Pep1 (peptide)
peptide: ELASYIIITQLG
notes: Synthetic designed peptide; the SPR text mentions no pegylation; also called polypeptide Pep1
